Assay results published in doi:10.1101/2021.06.15.448552 (bioRxiv, 2021).
Where “and” joins values, the source holds several entries; their conditions need not be identical. Identical values can stand only once.

B1: borneol-type dehydrogenase SoBDH2 from Salvia officinalis (enzyme)
chain: MATGAANVESPQSLPLRLLGRVALVTGGSSGIGESIVLLFRKHGAKVCIADVQDNQGQRLCETLGGSSDIAFCHCDVTIEDDVKRAVDFTVDKFGTLDIMVNNAGVSGPPCPDIRDFELSAFDRVFDINVRGVFIGMKHAARIMIPAKKGSIISISSVASTMGGLGPHAYTGSKHAVLGLTKNVAAELGKHGIRVNCVSPYAVATSLALAHLPEAERTEDTWDDFRRFVADNANLQGVELTMEDVANAVVFLASDEARYVSGMNLMVDGGFTSTNHALQVFRP

Key:
[1] = molecular target: borneol-type dehydrogenase SrBDH1 from Salvia rosmarinus (S. rosmarinus); assay: cryo-EM structure
[2] = molecular target: borneol-type dehydrogenase SrBDH1 from Salvia rosmarinus (S. rosmarinus); assay: SEC-MALS
SEC-MALS = molecular target: the molecule itself; assay: SEC-MALS

Molecule | stoichiometry N [1] | stoichiometry N [2] | stoichiometry N (SEC-MALS)
borneol-type dehydrogenase SrBDH1 from Salvia rosmarinus (enzyme) | 4 | 4 | 
B1 |  |  | 8 and 4
